From the nanobody polyreactivity screen of Harvey et al. (2022) come the findings set out here.

This data set can be described thus: yeast display, Sf9 membrane polyspecificity reagent, FACS + sequencing; frameworks hold sequencing errors. In a few lines: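 A nanobody's polyreactivity label depends on the gate it was sorted from. Yeast display cells were stained with 10% biotinylated, detergent-solubilized Sf9 membrane reagent for 1 hour at 4 °C, enriched on streptavidin microbeads and sorted by FACS. The low and high (top ~1%) gates were set on anti-HA fluorescence for expression and streptavidin fluorescence for reagent binding.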
For the sequence “QVQLVESGGRLVEAGGSLSLSWAASGRIFPKYPMGWYRQAPGKERELVAAISRRGSSTYYADSVQGRFTISRDNAKNTVYLQMNSLTPEDTAVYYCATDARDGHDYWGQGSQVTVSS”, the “polyreactivity (PSR sort gate)” value is reported as “high polyreactivity”.

For “QVQLVESGGRLVHAGGSLRISCAASGSILTRNAMGWYRPAPGKERELVAASTKRGGTTYYADSVKGRFTISRDNAKNTVYLQMNSLKQEDNAVYYCAARNGGRFSFEFNYWGQGTQVTVSS”, the “polyreactivity (PSR sort gate)” value was “high polyreactivity”.

On to “QVQLVESGGRLVKAGGSLRLSCAASGRTFSSYAMGWYRHAPGKERELVAAISSGGSTYYADSVKGRFTISRDNAKNTVYILMNSQIPEDTAVYYCNRRLYYKIGRGFSYYWGQGTQVTVSS”, for which the “polyreactivity (PSR sort gate)” value is recorded as “high polyreactivity”.

Consider “QVQLVESGGRLVQAGASLRLSCAASGFTLHWYAMGWYRQAPGKERELVASITNTGRTYYADSVKGRFTISRDNAKNTVYLQINILKPEDTAVYYCAAGTQYSHYYVADYCRDYWGQGTQVTVSS”, for which the “polyreactivity (PSR sort gate)” value is “high polyreactivity”.

With “QVQLVESGGRLVQAGGILRLSCAASGIIFKDYAMGWYRQATGKERELVAAISWSGSSTYYADSVKGRFTISRDNAKNTVYLQMNSLKPEDTAVYYCNAFPGDYRYDYWGQGTQVTVSS”, the “polyreactivity (PSR sort gate)” value is “high polyreactivity”.

As for “QVQLVESGGRLVQAGGRLRLSCDASGYIISSYVMGWYRQAHGKDKELVAAINRRGGSTYYADSVKGRFTISRDNAKNTVYLQMNSLKPEDTAVYYCAADGLSGYGSGGYYGMGYWGQGTQVTVSS”, the “polyreactivity (PSR sort gate)” value was “high polyreactivity”.

Consider “QVQLVESGGRLVQAGGSIRLSCAASGGIFTAYAMGCYRQAPGKEREFVAGIDRSGGRTYYADSVKGRFTISRDNAKNNVYLQMNSLKPEDTAVYYCYARGYVYQNQLYYYWGQGSQVTVSS”, for which the “polyreactivity (PSR sort gate)” value is on record as “high polyreactivity”.

With “QVQLVESGGRLVQAGGSLRLRGAASGNTNIPNAMGWYRQAPGKERELLAAIRASGGSTYYADSVKGRFTISRDNAKNTVYFQLNSLKTEDTSVYYCNADIWYKTYDYWGQGTQVTVSS”, the “polyreactivity (PSR sort gate)” value is on record as “low polyreactivity”.

Take “QVQLVESGGRLVQAGGSLRLSCAASGFIFCLNAMGWYRHAQGKERELVATIDNSGGSTYADSVKGRFTISRDNAKNTVYLQMNSLKPEVTAVYYCARDDGLLSYGYWGQGTQVTVSS”: the “polyreactivity (PSR sort gate)” value is reported as “low polyreactivity”.

With “QVQLVESGGRLVQAGGSLRLSCAASGFIFVDYAMGWYRQAPGKERELVAAITYDGGSTYYADSVKGRFTISRDNAKNTVYLPMNSLKPEDTAVYYCATQGLWIFVVVEMDYWGQGTQVTVSS”, the “polyreactivity (PSR sort gate)” value is reported as “low polyreactivity”.

“QVQLVESGGRLVQAGGSLRLSCAASGFSFRGNAMGWYRQAPGKERELVATISRGGNTNYADSVKGRFTISRDNAKNTVYLQMNSLKPEDTAVYYCAAVSYIRSKVAYNYWGQGTQVTVSS”: the “polyreactivity (PSR sort gate)” value is recorded as “low polyreactivity”.

For the sequence “QVQLVESGGRLVQAGGSLRLSCAASGFTFDSYDMGWYRQEPGKERELVAAITWSGGSTYYADSVKGRFTISRDNAKNTVYLQMNSLKPEDTAVYYCNADTGTYWVPWYHDGYDYWGQGTQVTVSS”, the “polyreactivity (PSR sort gate)” value is on record as “low polyreactivity”.

In the case of “QVQLVESGGRLVQAGGSLRLSCAASGFTFGENAMGWYRQAPGKERELVAAITSGDGTSYADSVKGRFTISRDNAKNTVYLQMNSLKPEDTAVYYCAADGGDELYYSTYDYWGQGTQVTVSS”, the “polyreactivity (PSR sort gate)” value is reported as “low polyreactivity”.

Turning to “QVQLVESGGRLVQAGGSLRLSCAASGFTFWNYAMGWYRQAPGKERELVAAISRSGTSTYYADSVKGRFTISRDYAKNTVYLQMNSLKPEDTAVYYCNVLRVKSITYLMDYWGQGTQVTVSS”, the “polyreactivity (PSR sort gate)” value is on record as “high polyreactivity”.

For “QVQLVESGGRLVQAGGSLRLSCAASGIIFRFYPMGWSRQAPGKERELVAAIRTSGGSTYYADSVKGRFTISRDNAKNTVYLQMNSLKPEDTAVYYCAAGPRAYSYRIYALYYWGQGTQVTVSS”, the “polyreactivity (PSR sort gate)” value was “high polyreactivity”.

Turning to “QVQLVESGGRLVQAGGSLRLSCAASGITIRWYAKGWYRQAPGKERELVSRIDGRGASTYADSVKGRFTSSRDNAKNTVYLQMNRLKPEDTAVYYCAVAQVRVSYLWVRKFYYWGQGTQVTVSS”, the “polyreactivity (PSR sort gate)” value is “high polyreactivity”.

In the case of “QVQLVESGGRLVQAGGSLRLSCAASGLIFVHYAMGWYRQSPGKERELVAAISAGGGSTYYADSVKGRFTISRDNAKNTVYLQMNSLKPEDTAVYYCNARVVNYVRPRTGAREYDFWGQGTQVTVSS”, the “polyreactivity (PSR sort gate)” value is listed as “high polyreactivity”.

As for “QVQLVESGGRLVQAGGSLRLSCAASGRIFGYYAMGWYRQAPGKERELVAAISSGGNTYYADSVKGRFTISRDNAKNTVYLQMNSLKPEDTAVYYCNEVYVGWQYGYDYWGQGTQVTVSS”, the “polyreactivity (PSR sort gate)” value is given as “low polyreactivity”.

On to “QVQLVESGGRLVQAGGSLRLSCAASGRIFNRYAMGWYRQAPGKERELVAAITRGGSTYYADSVKGRFTMSRDNAKITVYLQMNSLKPEDSAVYYCAGRVGYPYYYWGQGTQVTVSS”, for which the “polyreactivity (PSR sort gate)” value is given as “high polyreactivity”.

As to “QVQLVESGGRLVQAGGSLRLSCAASGRIFSRNAMGWYRQAPGKERELVAGISARGGRTYYADSVKGRFTISRDNAKNTVYLQMNSLKPEDTAVYYCAASFSAIRGGVRVTIDYYWGQGTQVTVSS”, the “polyreactivity (PSR sort gate)” value is “high polyreactivity”.

For the sequence “QVQLVESGGRLVQAGGSLRLSCAASGRIFVVNAMGWYRQAPGKEREFVAAITDNTGSTYYADSVKGRFTISRDNAKNTGYLQMNSLNPEDTAVYYCAAYGYSKDLWNFYYWGQGTQVTVSS”, the “polyreactivity (PSR sort gate)” value is on record as “low polyreactivity”.

Regarding “QVQLVESGGRLVQAGGSLRLSCAASGRIFWHNAMGWYRQAPGKETELVAAISSRGGSTSYSDSVKGRFTISRDNAKNTVYLQMNSLKPEDTAVYYCAALFRPRVHRYDYWGQGTQVTVSS”, the “polyreactivity (PSR sort gate)” value was “low polyreactivity”.

As for “QVQLVESGGRLVQAGGSLRLSCAASGRLFASNAMGWYLQAPGTEMELVAGNSRNGGSTFYADSVKGRFTISRDNAKNTVYLQMNSRKPEDSAVYYCARYYTHSGGYRDRIYYFWGQGTQVTVSS”, the “polyreactivity (PSR sort gate)” value is recorded as “low polyreactivity”.

Regarding “QVQLVESGGRLVQAGGSLRLSCAASGRTFDFYAMGWYRQAPGKERELVAAISSRGGSTYYADSVKGRFTISRDNAKNTVYLQMNSLKPEDTAVYYCAKDLGYRGRYNYWGQGTQVTVSS”, the “polyreactivity (PSR sort gate)” value is reported as “low polyreactivity”.

Regarding “QVQLVESGGRLVQAGGSLRLSCAASGRTFLHNAMGWYRQAPGKERELVAAIDSGGTTHYADSVKGRFTISRDNAKNTVYLQMNSLKPEDTAVYNCAARPTRGHWWYGNWGQGTQVTVTS”, the “polyreactivity (PSR sort gate)” value is “low polyreactivity”.

On to “QVQLVESGGRLVQAGGSLRLSCAASGRTFVSYAMGWYRQAPGKERELVATITGSTGGTYYADSVKGRFTISRDNAKNTVYLQMNSLKPEDTAVYYCNKDYYYNPGNVASGYDYWGHGTQVTVSS”, for which the “polyreactivity (PSR sort gate)” value is “low polyreactivity”.

As for “QVQLVESGGRLVQAGGSLRLSCAASGSIFAWSMGWYRPAPGKERELVAAISSGGSTYYADSVKGRFTISRDNAKNTVYFQMNSLKPEDTAVYYCAAGLISRFSRYYFWGQGTQVTVSS”, the “polyreactivity (PSR sort gate)” value was “high polyreactivity”.

Turning to “QVQLVESGGRLVQAGGSLRLSCAASGSIFRYYALGWYRQAPGKERELVAAISWSGGSTYYADSVKGRFTISRDNAKNTVYLQMNSLKPEDTAVYYCATTPGVWSTGGTNGFGYWGQGNQVTVSS”, the “polyreactivity (PSR sort gate)” value is recorded as “high polyreactivity”.

“QVQLVESGGRLVQAGGSLRLSCAASGSIIAWYVLGWYRRAAGKERELVAGIDTSGGSTFYADSVMGRFTISRDIAKNTVYLQMNSLKTEATAVYYCAADTWYRGPWEFDYWGQGTQVTVSS”: the “polyreactivity (PSR sort gate)” value is given as “low polyreactivity”.

Consider “QVQLVESGGRLVQAGGSLRLSCAASGSTFRGYAMGWYIPAPGKEWELVATITSGGSTKYADSVKGRFTISRDNAKNTVYLQMNSLKPEDTAVYYCNAVPRSWSPYRHWFDYWGQGTQVTVSS”, for which the “polyreactivity (PSR sort gate)” value is on record as “low polyreactivity”.

As to “QVQLVESGGRLVQAGGSLRLSCAASGSTFVCYAMGWYRQAPGKERELVAAISSGGRTHYADSVMARFTISRDNAKNTVILQMNSLKREDTAFYYCNAAYYILRFRYDYWGQGTQVTVSS”, the “polyreactivity (PSR sort gate)” value is “high polyreactivity”.

Regarding “QVQLVESGGRLVQAGGSLRLSCAASGSTFYPYAMGWYRQAPGKERELVAAINGNGGRTYYADSVKGRFTISRDNAKNTVYLQMNSLKPEDTAVYYCAVVRVAWGHRSDYWGQGTQVTVSS”, the “polyreactivity (PSR sort gate)” value was “high polyreactivity”.

Take “QVQLVESGGRLVQAGGSLRLSCAASGYIFKTNVMGWYRQAPGKEREMVAAISWSGGRTYYADSVKGRFTISRDYGKNCVYLQMNSLKPEDTSVYYFAAVGRQSIYFVDYDFWGQGTQVTVSS”: the “polyreactivity (PSR sort gate)” value is given as “high polyreactivity”.

As to “QVQLVESGGRLVQAGGSLRLSCAAYGSTFQGYAMGWYRQAPGKERELVADISWSGGSTYYADSVKGRFTISRDNAKNTVYLQMNSLKPEDTAVYYCNAVGYLDFEWGQGTQVTVSS”, the “polyreactivity (PSR sort gate)” value is “low polyreactivity”.

“QVQLVESGGRLVQAGGSLRLSCASSGFTFRYYAMGWYRQAPGKERELVASITGNGGSTYYADSVKGRFTISRDNAKNTVFLHMNSLKPEDTAVYYCNARVRGYYEYNYWGQGTQVTVSS”: the “polyreactivity (PSR sort gate)” value is “high polyreactivity”.

Consider “QVQLVESGGRLVQAGGSLRLSCSASGLTFTNYAMGSYRQAPGKERELVAAISNSGATTYYADSVKGRFTISRDNAKNTVYVQLKSLKPEDTAVYYCAATSYTATWRYYYWGQGTQVTVSS”, for which the “polyreactivity (PSR sort gate)” value was “high polyreactivity”.

For the sequence “QVQLVESGGRLVQAGGSLSISCAASGSTFTSYSMGWYRQAPGKERELVAAIRRIGGDTYYADSVKGRFTISRDNAKNTVYLQMNSLKPEDTAVNYCAAVRWRSEPYWYHAMEHWGQGTQVTVSS”, the “polyreactivity (PSR sort gate)” value was “low polyreactivity”.

As for “QVQLVESGGRLVQAGGSRRLSCAASGFTFGIYAMGWYRQAPGKARELVAAITSGGITKYADSVKGRFTISRDNAKNTVYLQMKSLKPEDTAVYYCAATGFRQSYDSTWYRYDYWGQGTQVTVSS”, the “polyreactivity (PSR sort gate)” value is reported as “low polyreactivity”.

For “QVQLVESGGRLVQAGGSRRLSCAASGSTFYTNDMGWYIQAPGKERELVAAISSGGDYADSVKGRFTISRDNAKNTVYLQMNSLKPEDTAVYYCAKADTKWGQGTQVTVSS”, the “polyreactivity (PSR sort gate)” value was “low polyreactivity”.

On to “QVQLVESGGRLVQAGGTLRLSCADSGNTLHVYAMGWYRQAPGKERELVARITGGGRKYYADSVKGRFTISRDNAKNTVYLLMNSLNPEDTAVYYCATDYYGHKFLYDYWGQGTQVTVSS”, for which the “polyreactivity (PSR sort gate)” value is “low polyreactivity”.

Regarding “QVQLVESGGRLVQAVGSLRLSCAASGRTFEYYNMGWYRQEPGKEREFVAANTWGGGSTSYADSVKGRFTISRDNAKNTVYLQMNSLKPEDTAVYYCAADDVYYDDDYWGQGTQVTVSS”, the “polyreactivity (PSR sort gate)” value is given as “high polyreactivity”.
